In the supplement of paper PMC10598134:
± gives the standard deviation.

Experiment: collision cross section of modified peptide (TIMS, N2, iRT-aligned); higher = larger / more extended gas-phase ion
In short: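 Synthetic peptide pools (~100 fmol/µL in 2% acetonitrile/0.1% formic acid, iRT standard spiked 1:40) were separated on a 120-min nanoflow C18 gradient at 60 °C. They were analysed on a timsTOF Pro/HT (dda-PASEF, nitrogen, ~2.4 mbar) and identified with MaxQuant. 1/K0 was calibrated with three reference ions and aligned run-wise to the median iRT peptide deviation. Collision cross section came from the Mason-Schamp equation, averaging 1–3 technical replicates of the most abundant feature per charge state.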

[1] = charge state: 2, modification: GlyGly (K)
[2] = charge state: 3, modification: GlyGly (K)
[3] = charge state: 2, modification: Malonyl
[4] = charge state: 2, modification: Methyl (K)
[5] = charge state: 3, modification: Methyl (K)
[6] = charge state: 2, modification: Propionyl
[7] = charge state: 2, modification: Succinyl
[8] = charge state: 2, modification: Trimethyl (K)
[9] = charge state: 3, modification: Trimethyl (K)
[10] = charge state: 2, modification: hydroxyisobutyryl
[11] = charge state: 2, modification: Acetyl (K)
[12] = charge state: 3, modification: Acetyl (K)
[13] = charge state: 2, modification: Biotin
[14] = charge state: 2, modification: Butyryl
[15] = charge state: 3, modification: Butyryl
[16] = charge state: 2, modification: Crotonyl
[17] = charge state: 3, modification: Crotonyl
[18] = charge state: 2, modification: Dimethyl (K)
[19] = charge state: 3, modification: Dimethyl (K)
[20] = charge state: 2, modification: Formyl
[21] = charge state: 2, modification: Glutarylation
[22] = charge state: 3, modification: Glutarylation
[23] = charge state: 3, modification: Propionyl
[24] = charge state: 3, modification: Succinyl
[25] = charge state: 3, modification: hydroxyisobutyryl
[26] = charge state: 2, modification: HexNAc (ST)
[27] = charge state: 2, modification: Citrullination (R)
[28] = charge state: 3, modification: Methyl (R)
[29] = charge state: 3, modification: Citrullination (R)

With “SNEEGSEEKGPEVR [_SNEEGSEEK(GlyGly (K))GPEVR_]” the collision cross section [1] was 409.13 ± 2.5 Å² and the collision cross section [2] was 474.76 ± 1.1 Å².

“SNEEGSEEKGPEVR [_SNEEGSEEK(Malonyl)GPEVR_]” showed a collision cross section [3] of 402.09 ± 1.6 Å².

With “SNEEGSEEKGPEVR [_SNEEGSEEK(Methyl (K))GPEVR_]” the collision cross section [4] was 394.85 ± 7.3 Å² and the collision cross section [5] was 481.38 ± 2.6 Å².

“SNEEGSEEKGPEVR [_SNEEGSEEK(Propionyl)GPEVR_]” showed a collision cross section [6] of 404.8 ± 1.3 Å².

Work on “SNEEGSEEKGPEVR [_SNEEGSEEK(Succinyl)GPEVR_]” yielded a collision cross section [7] of 403.42 ± 0.55 Å².

Sequence “SNEEGSEEKGPEVR [_SNEEGSEEK(Trimethyl (K))GPEVR_]” has a collision cross section [8] of 400.43 Å² and a collision cross section [9] of 464.15 ± 1.8 Å².

Sequence “SNEEGSEEKGPEVR [_SNEEGSEEK(hydroxyisobutyryl)GPEVR_]” has a collision cross section [10] of 409.53 ± 1.1 Å².

“SPASDTYIVFGEAK [_SPASDTY(Nitro (Y))IVFGEAK_]” gave a collision cross section (charge state: 2, modification: Nitro (Y)) of 402.5 ± 0.55 Å² and a collision cross section (charge state: 3, modification: Nitro (Y)) of 486.92 Å².

Sequence “SPASDTYIVFGEAK [_SPASDTY(Phospho (Y))IVFGEAK_]” has a collision cross section (charge state: 2, modification: Phospho (Y)) of 410.05 Å².

Sequence SPDEAYAIAKK [_SPDEAYAIAK(Acetyl (K))K_] has a collision cross section [11] of 369.21 ± 0.94 Å² and a collision cross section [12] of 447.3 ± 0.6 Å².

SPDEAYAIAKK [_SPDEAYAIAK(Biotin)K_] gave a collision cross section [13] of 394.29 ± 1.1 Å².

SPDEAYAIAKK [_SPDEAYAIAK(Butyryl)K_] showed a collision cross section [14] of 376.59 ± 1.2 Å² and a collision cross section [15] of 446.36 ± 0.47 Å².

With SPDEAYAIAKK [_SPDEAYAIAK(Crotonyl)K_] the collision cross section [16] was 376.34 ± 0.8 Å² and the collision cross section [17] was 442.81 ± 1.6 Å².

In the case of “SPDEAYAIAKK [_SPDEAYAIAK(Dimethyl (K))K_]”, the collision cross section [18] is reported as 376.23 ± 0.37 Å² and the collision cross section [19] is reported as 437.31 ± 0.63 Å².

Work on SPDEAYAIAKK [_SPDEAYAIAK(Formyl)K_] yielded a collision cross section [20] of 364.33 ± 1 Å².

With “SPDEAYAIAKK [_SPDEAYAIAK(Gluratylation)K_]” the collision cross section [21] was 380.21 ± 0.73 Å² and the collision cross section [22] was 455.46 ± 1.2 Å².

SPDEAYAIAKK [_SPDEAYAIAK(GlyGly (K))K_] showed a collision cross section [1] of 383.65 ± 0.88 Å² and a collision cross section [2] of 448.77 ± 3 Å².

In the case of SPDEAYAIAKK [_SPDEAYAIAK(Malonyl)K_], the collision cross section [3] is reported as 371.15 ± 0.62 Å².

In the case of SPDEAYAIAKK [_SPDEAYAIAK(Methyl (K))K_], the collision cross section [4] is reported as 372.23 ± 0.47 Å² and the collision cross section [5] is reported as 436.75 ± 4.3 Å².

In the case of SPDEAYAIAKK [_SPDEAYAIAK(Propionyl)K_], the collision cross section [6] is reported as 373.53 ± 0.94 Å² and the collision cross section [23] is reported as 448.43 ± 0.74 Å².

Sequence SPDEAYAIAKK [_SPDEAYAIAK(Succinyl)K_] has a collision cross section [7] of 374.28 ± 0.24 Å² and a collision cross section [24] of 452.6 ± 2.6 Å².

Work on “SPDEAYAIAKK [_SPDEAYAIAK(Trimethyl (K))K_]” yielded a collision cross section [8] of 381.12 ± 1.2 Å² and a collision cross section [9] of 449.09 Å².

In the case of “SPDEAYAIAKK [_SPDEAYAIAK(hydroxyisobutyryl)K_]”, the collision cross section [10] is reported as 377.18 ± 1.4 Å² and the collision cross section [25] is reported as 453.4 ± 3.9 Å².

“SPPLPEHQKIPCNSAEPK [_SPPLPEHQK(Butyryl)IPCNSAEPK_]” gave a collision cross section [15] of 542.36 ± 2 Å².

“SPPLPEHQKIPCNSAEPK [_SPPLPEHQK(Gluratylation)IPCNSAEPK_]” gave a collision cross section [22] of 541.53 Å².

“SPPLPEHQKIPCNSAEPK [_SPPLPEHQK(GlyGly (K))IPCNSAEPK_]” gave a collision cross section [2] of 516.26 Å².

Sequence “SPPLPEHQKIPCNSAEPK [_SPPLPEHQK(Methyl (K))IPCNSAEPK_]” has a collision cross section [5] of 546.75 Å².

For “SPPLPEHQKIPCNSAEPK [_SPPLPEHQK(Succinyl)IPCNSAEPK_]”, the collision cross section [24] was 539.73 ± 2.2 Å².

Sequence “SPPLPEHQKIPCNSAEPK [_SPPLPEHQK(hydroxyisobutyryl)IPCNSAEPK_]” has a collision cross section [25] of 544.57 Å².

“SPSDSGYSYETIGKTTK [_SPSDSGYSYETIGK(Acetyl (K))TTK_]” showed a collision cross section [11] of 448.1 ± 2.3 Å² and a collision cross section [12] of 524.63 ± 0.47 Å².

In the case of “SPSDSGYSYETIGKTTK [_SPSDSGYSYETIGK(Butyryl)TTK_]”, the collision cross section [14] is reported as 455.62 ± 0.51 Å² and the collision cross section [15] is reported as 527.5 ± 2.7 Å².

“SPSDSGYSYETIGKTTK [_SPSDSGYSYETIGK(Crotonyl)TTK_]” showed a collision cross section [16] of 455.39 ± 0.82 Å² and a collision cross section [17] of 528.2 ± 1.2 Å².

For “SPSDSGYSYETIGKTTK [_SPSDSGYSYETIGK(Dimethyl (K))TTK_]”, the collision cross section [18] was 470.19 ± 1.3 Å² and the collision cross section [19] was 515.36 ± 1.6 Å².

For “SPSDSGYSYETIGKTTK [_SPSDSGYSYETIGK(Formyl)TTK_]”, the collision cross section [20] was 446.06 ± 0.77 Å² and the collision cross section (charge state: 3, modification: Formyl) was 518.69 ± 1.8 Å².

For “SPSDSGYSYETIGKTTK [_SPSDSGYSYETIGK(Gluratylation)TTK_]”, the collision cross section [21] was 456.74 ± 1.5 Å² and the collision cross section [22] was 531.96 ± 0.12 Å².

Work on “SPSDSGYSYETIGKTTK [_SPSDSGYSYETIGK(GlyGly (K))TTK_]” yielded a collision cross section [1] of 483.23 ± 1.5 Å² and a collision cross section [2] of 532.2 ± 3.5 Å².

“SPSDSGYSYETIGKTTK [_SPSDSGYSYETIGK(Malonyl)TTK_]” showed a collision cross section [3] of 450.66 ± 0.58 Å² and a collision cross section (charge state: 3, modification: Malonyl) of 526.41 Å².

Sequence “SPSDSGYSYETIGKTTK [_SPSDSGYSYETIGK(Methyl (K))TTK_]” has a collision cross section [4] of 466.86 ± 1.2 Å² and a collision cross section [5] of 512.24 ± 3.8 Å².

Sequence “SPSDSGYSYETIGKTTK [_SPSDSGYSYETIGK(Propionyl)TTK_]” has a collision cross section [23] of 528.1 Å².

Sequence “SPSDSGYSYETIGKTTK [_SPSDSGYSYETIGK(Succinyl)TTK_]” has a collision cross section [7] of 453.06 ± 1.1 Å² and a collision cross section [24] of 530.11 ± 3 Å².

Sequence “SPSDSGYSYETIGKTTK [_SPSDSGYSYETIGK(Trimethyl (K))TTK_]” has a collision cross section [8] of 455.09 ± 0.58 Å² and a collision cross section [9] of 517.28 ± 2.4 Å².

With “SPSDSGYSYETIGKTTK [_SPSDSGYSYETIGK(hydroxyisobutyryl)TTK_]” the collision cross section [10] was 457.69 ± 0.57 Å² and the collision cross section [25] was 538.76 ± 2.8 Å².

Sequence “SQAGASELGPFSDPR [_SQAGASELGPFS(HexNAc (ST))DPR_]” has a collision cross section [26] of 425.39 ± 1.3 Å².

SQLANTEPTK [_SQLANT(HexNAc (ST))EPTK_] gave a collision cross section [26] of 372.78 ± 0.59 Å².

“SRFYSGFNSR [_SR(Citrullination (R))FYSGFNSR_]” showed a collision cross section [27] of 364.39 ± 0.53 Å².

SRFYSGFNSR [_SR(Methyl (R))FYSGFNSR_] showed a collision cross section (charge state: 2, modification: Methyl (R)) of 375.99 ± 1.6 Å² and a collision cross section [28] of 436.64 ± 3.4 Å².

“SRGAIISQYYNR [_SR(Citrullination (R))GAIISQYYNR_]” showed a collision cross section [27] of 408.9 ± 1.3 Å² and a collision cross section [29] of 483.76 Å².

In the case of “SRGAIISQYYNR [_SR(Methyl (R))GAIISQYYNR_]”, the collision cross section [28] is reported as 476.32 ± 1.6 Å².

Sequence “SRGGGGNFGPGPGSNFR [_SR(Citrullination (R))GGGGNFGPGPGSNFR_]” has a collision cross section [29] of 461.31 ± 6.4 Å².

Work on “SRGGGGNFGPGPGSNFR [_SR(Methyl (R))GGGGNFGPGPGSNFR_]” yielded a collision cross section [28] of 461.66 ± 1.4 Å².

For SSDLTDRVK [_S(HexNAc (ST))SDLTDRVK_], the collision cross section [26] was 362.74 ± 0.12 Å² and the collision cross section (charge state: 3, modification: HexNAc (ST)) was 449.63 ± 1.1 Å².

“SSFAYKDQNENR [_SSFAYK(Acetyl (K))DQNENR_]” gave a collision cross section [11] of 398.41 ± 1.4 Å² and a collision cross section [12] of 457.8 ± 0.27 Å².

Work on SSFAYKDQNENR [_SSFAYK(Biotin)DQNENR_] yielded a collision cross section [13] of 421.15 ± 1.9 Å² and a collision cross section (charge state: 3, modification: Biotin) of 490.01 ± 0.34 Å².
